Reference: paper PMC5706562

Biological target: Psy2 with aa 25–129 deleted, fused to lexA-DBD (S. cerevisiae)
Assay: two-hybrid

B1: DDC2 fused to B42-AD (natural protein)
chain: MRRETVGEFSSDDDDDILLELGTRPPRFTQIPPSSAALQTQIPTTLEVTTTTLNNKQSKNDNQLVNQLNKAQGEASMLRDKINFLNIEREKEKNIQAVKVNELQVKHLQELAKLKQELQKLEDEKKFLQMEARGKSKREVITNVKPPSTTLSTNTNTITPDSSSVAIEAKPQSPQSKKRKISDNLLKKNMVPLNPNRIIPDETSLFLESILLHQIIGADLSTIEILNRLKLDYITEFKFKNFVIAKGAPIGKSIVSLLLRCKKTLTLDRFIDTLLEDIAVLIKEISVHPNESKLAVPFLVALMYQIVQFRPSATHNLALKDCFLFICDLIRIYHHVLKVPIHESNMNLHVEPQIFQYELIDYLIISYSFDLLEGILRVLQSHPKQTYMEFFDENILKSFEFVYKLALTISYKPMVNVIFSAVEVVNIITSIILNMDNSSDLKSLISGSWWRDCITRLYALLEKEIKSGDVYNENVDTTTLHMSKYHDFFGLIRNIGDNELGGLISKLIYTDRLQSVPRVISKEDIGMDSDKFTAPIIGYKMEKWLLKLKDEVLNIFENLLMIYGDDATIVNGEMLIHSSKFLSREQALMIERYVGQDSPNLDLRCHLIEHTLTIIYRLWKDHFKQLREEQIKQVESQLIMSLWRFLVCQTETVTANEREMRDHRHLVDSLHDLTIKDQASYYEDAFEDLPEYIEEELKMQLNKRTGRIMQVKYDEKFQEMARTILESKSFDLTTLEEADSLYISMGL
B1 showed a percent reduction of the two-hybrid interaction of 50%.
